± gives the uncertainty stated by the source.
Test: self-splicing fitness, log relative to wild type (ln ratio); higher = more splicing; Tetrahymena group I intron in knt gene, E. coli kanamycin selection, DiMSum; sequences stand for … in CUCUCU…GGAGGGAAAAGUUAUCAGGCAUGCACCUGGUAGCUAGUCUUUAAACCAAUAGAUUGCAUCGGUUUAAAAGGCAAGACCGUCAAAUUGCGGGAAAGGGGUCAACAGCCGUUCAGUACCAAGUCUCAGGGGAAACUUUGAGAUGGCCUUGCAAAGGGUAUGGUAAUAAGCUGACGGACAUGGUCCUAACCACGCAGCCAAGUCCUAAGUCAACAGAUCUUCUGUUGAUAUGGAUGCAGUUCACAGACUAAAUGUCGGUCGGGGAAGAUGUAUUCUUCUCAUAAGAUAUAGUCGGACCUCUCCUUAAUGGGAGCUAGCGGAUGAAGUGAUGCAACACUGGAGCCGCUGGGAACUAAUUUGUAUGCGAAAGUAUAUUGAUUAGUUUUGGAGUACUCGUGGUCG
Method in brief: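 Fitness was computed with DiMSum as the error-weighted combination of replicate fold changes, kanamycin versus none, each normalised to wild type. The library randomised all eight intron nucleotides of the P1ex region, with the intron placed in the knt kanamycin-resistance gene on pET-22b(+) in E. coli BL21(DE3). Six replicate transformations were grown overnight at 37°C or 30°C on LB agar with or without 25 μg/mL kanamycin, plus 100 μg/mL carbenicillin, 50 μM IPTG and 0.2% rhamnose. Pooled colonies were amplicon-sequenced on an Illumina HiSeq 2500.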

| Sequence | self-splicing fitness (ln) (30 °C) | self-splicing fitness (ln) (37 °C) |
| --- | --- | --- |
| GGUCAGCAAUAUUACGUCAU | -0.37 ± 0.088 | 0.00388 ± 0.12 |
| GGUGAGCAAUAUUACGAACU | -2.18 ± 0.42 |  |
| GGUGAGCAAUAUUACGACCG | -0.141 ± 0.11 | 0.778 ± 0.19 |
| GGUGAGCAAUAUUACGACGU | -0.578 ± 0.13 | -0.013 ± 0.15 |
| GGUGAGCAAUAUUACGAGAC | -2.82 ± 0.33 | -2.01 ± 0.46 |
| GGUGAGCAAUAUUACGAGUG | -2.19 ± 0.41 | -2.55 ± 0.27 |
| GGUGAGCAAUAUUACGCACA | -1.07 ± 0.15 | -0.679 ± 0.17 |
| GGUGAGCAAUAUUACGCCAC | -1.24 ± 0.44 |  |
| GGUGAGCAAUAUUACGCCCU | -1.66 ± 0.41 |  |
| GGUGAGCAAUAUUACGCUAA | -3.69 ± 0.35 | -1.78 ± 0.21 |
| GGUGAGCAAUAUUACGCUCU | -3.87 ± 0.42 | -2.42 ± 0.41 |
| GGUGAGCAAUAUUACGCUUG | -3.71 ± 0.29 | -3.44 ± 0.33 |
| GGUGAGCAAUAUUACGGUGG | -3.06 ± 0.26 | -2.88 ± 0.32 |
| GGUGAGCAAUAUUACGUUCA |  | -1.92 ± 0.47 |
| GGUGAGCAAUAUUACGUUGG | -3.52 ± 0.32 | -0.982 ± 0.36 |
| GGUUAGCAAUAUUACGACUA | 0.135 ± 0.11 | 0.423 ± 0.14 |
| GGUUAGCAAUAUUACGACUG | -0.729 ± 0.1 | -0.796 ± 0.12 |
| GGUUAGCAAUAUUACGAGUU | -1.87 ± 0.15 | -0.221 ± 0.12 |
| GGUUAGCAAUAUUACGAUCG | -0.314 ± 0.14 | -0.207 ± 0.27 |
| GGUUAGCAAUAUUACGAUGU | -0.65 ± 0.14 | -0.087 ± 0.15 |
| GGUUAGCAAUAUUACGCACA | -0.431 ± 0.1 | -0.339 ± 0.14 |

| Sequence | self-splicing fitness (ln) (30 °C) | self-splicing fitness (ln) (37 °C) |
| --- | --- | --- |
| GGUUAGCAAUAUUACGCAGA | -1.17 ± 0.24 | -2.02 ± 0.26 |
| GGUUAGCAAUAUUACGCGAC | -2.02 ± 0.34 | -1.33 ± 0.27 |
| GGUUAGCAAUAUUACGCUCA | -1.34 ± 0.2 | -0.632 ± 0.19 |
| GGUUAGCAAUAUUACGCUUU | -2.01 ± 0.13 | 0.0831 ± 0.14 |
| GGUUAGCAAUAUUACGGCCC | -1.23 ± 0.43 |  |
| GGUUAGCAAUAUUACGGGUA | -1.11 ± 0.22 | -1.39 ± 0.19 |
| GGUUAGCAAUAUUACGGGUC | -2.03 ± 0.24 | -0.805 ± 0.18 |
| GGUUAGCAAUAUUACGUAGC | -2.18 ± 0.16 | -1.97 ± 0.17 |
| GGUUAGCAAUAUUACGUAUU | -1.14 ± 0.11 | -0.191 ± 0.1 |
| GGUUAGCAAUAUUACGUCAC |  | -1.82 ± 0.23 |
| GGUUAGCAAUAUUACGUCCC |  | -2.36 ± 0.34 |
| GGUUAGCAAUAUUACGUGCC | -2 ± 0.46 |  |
| GGUUAGCAAUAUUACGUGGU | -2.69 ± 0.18 | -0.78 ± 0.17 |
| GGUUAGCAAUAUUACGUUAA | -2.32 ± 0.19 | -0.699 ± 0.16 |
| GGUUAGCAAUAUUACGUUAU | -1.61 ± 0.1 | -0.954 ± 0.1 |
| GGUUAGCAAUAUUACGUUCG | -0.206 ± 0.089 | 0.151 ± 0.11 |
| GGUUAGCAAUAUUACGUUCU | -0.833 ± 0.042 | -0.236 ± 0.052 |
| GUAAAGCAAUAUUACGAAAU | -0.837 ± 0.078 | -0.128 ± 0.1 |
| GUAAAGCAAUAUUACGAACC | -2.39 ± 0.29 | -2.8 ± 0.36 |
| GUAAAGCAAUAUUACGAAUG | -2.8 ± 0.14 | -1.23 ± 0.2 |

— the supplement of paper PMC7877785
